Data taken from the DeepSol protein solubility set.

Test: soluble on expression in E. coli; label from the status in PepcDB or PDB records

Sequence: MGHHHHHHSHMSIPSSQYGFVFNKQSGLKLRNDLPVHKPKAGQLLLKVDAVGLCHSDLHVIYEGLDCGDNYVMGHEIAGTVAAVGDDVINYKVGDRVACVGPNGCGGCKYCRGAIDNVCKNAFGDWFGLGYDGGYQQYLLVTRPRNLSRIPDNVSADVAAASTDAVLTPYHAIKMAQVSPTSNILLIGAGGLGGNAIQVAKAFGAKVTVLDKKKEARDQAKKLGADAVYETLPESISPGSFSACFDFVSVQATFDVCQKYVEPKGVIMPVGLGAPNLSFNLGDLALREIRILGSFWGTTNDLDDVLKLVSEGKVKPVVRSAKLKELPEYIEKLRNNAYEGRVVFNP
- soluble on expression in E. coli: soluble

Sequence: MGSDKIHHHHHHMTVSQVSTGTGLGTRHVAFDWGGVFTVGTFDGRSTQNVAERSGVPVEKVRESYFRHIRQLEVGAWTLPQFWETVQQETGMTLPYADFEALYLGSIHDNAPMYTTLAALPRSVRVGLLSNNYPVVSEHLGRDPRFARFDALVFSNEIGHKKPAPEAFAALEQKMGLPAAQVAFVDDVQENIDAAGAFGFHGILYHHDAHERFEQELKEWLRG
- soluble on expression in E. coli: not soluble

Sequence: GIYQHFSIEDRPFLDKGMEWIKKVEDSYAPFLTPFINPHQEKLLKILAKTYGLACSSSGEFVSSEYVRVLLYPDYFQPEFSDFEISLQEIVYSNKFEYLTHAKILGTVINQLGIERKLFGDILVDEERAQIMINQQFLLLFQDGLKKIGRIPVSLEERPFTEKID
- soluble on expression in E. coli: soluble

Sequence: MNDVPHRPQVKTRKALTPLLEIRNLTKSFDGQHAVDDVSLTIYKGEIFALLGASGCGKSTLLRMLAGFEPPSSGQIMLDGVDLAHVPPYQRPINMMFQSYALFPHMTVEQNIAFGLKQDKLPKAEITSRVNEMLGLVHMQEFAKRKPHQLSGGQRQRVALARSLAKRPKLLLLDEPMGALDKKLRDRMQLEVVDILERVGVTCVMVTHDQEEAMTMAGRIAIMNRGKFVQIGEPEEIYEHPTTRYSAEFIGSVNVFEGLLKAREEDGLVIDAPGLVHPLKVDADASVVDNVPVYVALRPEKIMLCESPPADGYNFAVGEVAHIAYLGDLSIYHVRLKSGQMISAQLQNAHRYRKGLPTWGDEVRLCWEADSCVVLTV
- soluble on expression in E. coli: not soluble

Sequence: MKIALINENSQAAKNGIIYDALTTVTDKHGYQVFNYGMYGTEGESQLTYVQNGLLASILLTTKAADFVVTGCGTGVGAMLALNSFPGVTCGFASEPTEAYLFSQINGGNALSIPFAKGFGWGAELNLTLIFERLFAEPMGGGYPKERAIPEQRNARILSDLKKITYRDLLAIVKDIDQDFLKETISGAHFQEYFFANAEPSELVTYLKSVLEQ
- soluble on expression in E. coli: not soluble

Sequence: TSSLHPTRGKLLKRFAQIGPYIREQQCQESQFFFDCLAVCVNKKVTPEKREFWGWWMELERNGEQLIYYYQVGLFDKNGDWVNQVISKKDVIESIHETLIRFHDFLQAAVSELEMTLVPDEKMSNFPLPL
- soluble on expression in E. coli: soluble

Sequence: MSLEESAVPGWVLELLREAGYKSLLPIQEKAFPIIYRGLNALVVAPTGSGKTEAALAPLLARLRNGRVASGGGVKVVYVTPLRALNRDLEGRVERLAGLFGYTVQVRHGDTVQSSRRRFLERPPDIVITTPESLALLLTVKRAKEVLKQARAVVVDEIHELMESKRGVELSLNLEKLELMAGRRLQRIGLSATVSRHSLYRAASLLGAGRHVSMVLDTSPKEYDVRVVVVGDEGRFWENSVKAIAELVKGEGGSVLIFANTRSTVETLAFALSRELGEEVPAHHGSLSRHVRERVERDFKEGRVKAIVATSSLELGIDVGRVALVVQFLSPRQVTAMVQRAGRSGHRFGERSRAVIVTIDNVFEVLESHVIAFRAMKGDLEDISIPKKPYDALAHFMAGAAIDSEPPTLEGVYKLAVSTAPYEDLKMEEVEEIARVLSDVRVIRLGPGGKLGRSSRTYSYFYRVSMIPDEKTFKVHDVVSGRDVGEVGERFIQLRLMKASDPREGHHHHHH
- soluble on expression in E. coli: not soluble

Sequence: MIYEFCAENVTLLEKAMQAGARRIELCDNLAVGGTTPSYGVTKAAVELAANYDTTIMTMIRPRGGDFVYNDLEIAIMLEDIRLTAQAGSQGVVFGALTADKKLDKPNLEKLIAASKGMEIVFHMAFDELSDEDQAEAIDWLSQAGVTRILTRAGVSGDSLEKRFVHYHRILEYAKGKIEILPGGGIDLENRQTFIDQVGVTQLHGTKVVFLEHHHHHH
- soluble on expression in E. coli: soluble

Sequence: PFEIVFEGAKEFAQLIDTASKLIDEAAFKVTEDGISMRAMDPSRVVLIDLNLPSSIFSKYEVVEPETIGVNLDHLKKILKRGKAKDTLILKKGEENFLEITIQGTATRTFRVPLIDVEEMEVDLPELPFTAKVVVLGEVLKAAVKAASLVSDSIKFIARENEFIMKAEGETQEVEIKLTLEDEGLLDIEVQEETKSAYGVSYLSDMVKGLGKADEVTIKFGNEMPMQMEYYIRDEGRLTFLLAPRVEE
- soluble on expression in E. coli: soluble

Sequence: MGSDKIHHHHHHMMTSSEIKRIATYVEKGGVGKTTSAAHIAVAAHNRGHEVLLVDLAGTQNDLATHFGLSIVDEEATDDGVSIDAPISAVFGDDWAFLRDNIDDLLDRMTFPTDEGPDLIPADPGLGGADNNLANVPLEERYQKLDGFVEDLVADKYDLVIFDLPGKEDNIALNGLFAARNVVAPLKPGAFERDQLQKLDATLEEISADLDVDLGLALIIPTIISSQETLSESFVEYVTEEYPEIVGEPVTKTADIGNNQNAGRTLFAVPDDELYATGKRAREAYSANTEQLLSRLTDR
- soluble on expression in E. coli: not soluble

Sequence: MMLKQAAKKALGLTSRQSTPWSVGILRTYHENVIDHYDNPRNVGSFDKNDPNVGTGLVGAPACGDVMKLQIKVDEKTGQIVDARFKTFGCGSAIASSSVATEWVKGKAMEDVLTIKNTEIAKHLSLPPVKLHCSMLAEDAIKAAVKDYKEKRVKTNGAAAAGETTQA
- soluble on expression in E. coli: not soluble

Sequence: MAPRKKVNEMVIRKTANLTDKMRKERTVEEFEEVKTAQSKSYESDTSSAESLRQKRTAPSAIRTVQIQKEIVLPYDGNLVSVYEKSSNTRSLDTISEPGDLEEFKKKAEESKYVGPQIVPMKFVTTDVETPVKAIFVSDFDFCQAMHHPPQSSTQSKKVEFSKRFEVEQKFLEEMVADIEKLIVSSGRMDVELKVVKAREENDSPRAKISLVRKIHAEKVDDNLNNQAGLVGFILPDLEMKDHGIPLKITKNQQVPSGQKMFESFKRLFGY
- soluble on expression in E. coli: not soluble

Sequence: AWVDQTPRTATKETGESLTINCVLRDASYGLESTGWYRTKLGSTNEQTISIGGRYVETVNKGSKSFSLRIRDLRVEDSGTYKCGAFRFWLPYGYGSLPLSEKGAGTVLTVK
- soluble on expression in E. coli: soluble

Sequence: MRSRRVDVMDVMNRLILAMDLMNRDDALRVTGEVREYIDTVKIGYPLVLSEGMDIIAEFRKRFGCRIIADFKVADIPETNEKICRATFKAGADAIIVHGFRGADSVRACLNVAEEMGREVFLLTEMSHPGAEMFIQGAADEIARMGVDLGVKNYVGPSTRPERLSRLREIIGQDSFLISPGVGAQGGDPGETLRFADAIIVGRSIYLADNPAAAAAGIIESIKDLLNP
- soluble on expression in E. coli: not soluble

Sequence: MFQLSVQDIHPGQQAGNKEEAIRQVAAALVSAGNVADGYVNGMLAREQQTSTFLGNGIAIPHGTTDTRDQVLKTGVQVFQFPQGVTWGEGQTAYVAIGIAASSDEHLGLLRQLTHVLSDDAVAAQLQSATTAEELRALLMGEKQSEALKLDNETLSLDVAASDLLTLQALNAARLKEVGAVDAAFVSHVINDTPLNLGQGVWLNDSAEGNLRSAVAVSRAANAFTRDEQPVSLLVTVAMADEQPTAVLNRLSKLLLDKKAEHLLKADAATVLALLTSDDAIAEDVLSAEFVVRNEHGLHARPGTMLVNTIKQFSSDITVTNLDGSGKPANGRSLMKVVALGVKKGHRLRFTAQGEDAQQALDAIGEAIAAGLGEGA
- soluble on expression in E. coli: not soluble

Sequence: HAIFERHENDLHCEVPISFATAALGGSIEVPTLEGRVTLKIPAETQTGKVFRLRSKGMKSVRGYGQGDLLCKVVVETPVNLSREQKELLNKLQDSLENAKGTH
- soluble on expression in E. coli: not soluble

Sequence: MGSDKIHHHHHHSAGPIHPASLDIDNGNGTNVFIAYEWVDYDYKTYTENGLALDEAWGHLYMAIVAVAGVHVTGYVHNDIDRGNFVINSDGILKLTDFGMSSSKDASCSGKALFFPPETFQPGFFQRKRDASALARVQARDLFQVGNTMLEAILGKEGEIYQAERYGLKLAMVKKKPDFKQDLKVVIQDEKKFRKSFGKIGTKKIEDKLCVDPSRQAEVVKNLARWGLQNSLSL
- soluble on expression in E. coli: not soluble

Sequence: MKPIDRFSYLKNNRVSQDTSSLVQCYLPIIGQEALSLYLYTISFWDNGRKEYLFSSILNHLNFGMDRLIKSLKILSAFNLLTLYQKGDVYQLALHAPLSSQDFLGHPVYRRLLEKKIGDVAVEDLKVESADGEEIPVSLNQVFPELAELGSQEDLGLKKKVANDFDLEHFRQLMARDGLRFADEQSDVLNLFAIAEEKKWTWFETYQLAKSTAVSQVISTKRMREKIAQKPVSSDFSLKEATIIKEAKSKTALQFLAEIKQTRKGTITQTERELLQQMAGLGLLDEVINIILLLTFNKVDSANINEKYAMKVANDYAYQKIHSAEEAVLRIRDRGQKAKTQKQNQTAPEKTNVPKWSNPEYKNETSEETRLELERKKQELLARLEKG
- soluble on expression in E. coli: soluble

Sequence: MSLAGGYVIDTTENTFQAMVQTSATFPILLFLWVPTDDRLFAMARALGDAVNKLNGQIQLSRIDIASNPSIAQAFQIQGAPALFALIGGRPMPILQGLPSDEELQQITDVVVPKLIAAAQQAGVTGTAPYSGDPDSDAANSASAGSVQDQVPPEHQEAYMLAQQGDYAGAAAAYEKVLEADPNDTRAARERAKALLLARSANADVRVVRAAAADKPDDVDAQLAVADIDMIGGQIQDAFDRLLDFVAAGHKADIEPVRQRLLEYFTIPEPTDERLKRARRRLATLMYEGHHHHHH
- soluble on expression in E. coli: soluble

Sequence: MITCLPLLAGEGARRKGDIGMRNKNKRLAQYATELRRNMTDAEYALWYHLRNKLFCGIRFNRQVIIGHYIVDFCSRKLKLVIELDGIQHVEQEQYDLERTKFLTAQGYKVIRFWNDEVLKNIDNVLEAIYVEIEHLSPPHFGSSPHKWVEPRLEVLK
- soluble on expression in E. coli: not soluble

Sequence: MGSDKIHHHHHHMKKFIVEPEFWELFPETKIGIVLAKNIDNSMESSAEIKKNLDEANENAEQFLEAAVFSENPVVSVWRKAYQKFKTKKGARSSIENLLKRVDKGKAVGSINPLVDIYNSISLNYGLPAGGEDIDTFAGNLRLTKAVGGEHFLALGDDEADNALPGEICYLDDEGAVCRSWNWRDGQRTMLTEQTKNAFLIIESVDPERGEVLDAATQKLAELSEKYLGGTAQVLLVTKENPEISLD
- soluble on expression in E. coli: not soluble

Sequence: MSLEYKYDVVIVGLGPAGSSLAYLLKDTGLKVAGLDIADFNRVWGKPCGDAIGKGHFLETGLPLPKGEAMMQVVNAVDIYSPSEEVKIRLSEPEGGFMIDRNKYGLQLLEEAQKSGVDVYLKTHALSPIIENGRLVGVYAKRHGEDGDVNVKFYSKIIVDATGSGGAIKRKLPSSWPVVEPLKPTDSAVAYRKIVELDYDIEEPDVIRIYINADIAPGGYWWLFPKGRRIANIGIGVQRGRGYPHPRHLYEKYLDKRPDTGRVVRLLNEAGALLPTRRPANTIVWDNFVSIGDNAYTVNPVHGGGMGYAMTAAMYAARGIEKAFEKGDYSVETLWDINLGYMRSTGAKQAGLDILRIYLQTLTNEEVEWAMRNGLANVDNLVEASTQGEIKRLNLTLLEKAKVLARLLGRPTKLMELLTVAEYMSKVKKLYYEYPERPDGLPRWVDRVETLYREYKARLGIDWEGHHHHHH
- soluble on expression in E. coli: soluble

Sequence: EANLKPENVEIHIIDDNFFLKWNSSSESVKNVTFSADYQILGTDNWKKLSGCQHITSTKCNFSSVELENVFEKIELRIRAEEGNNTSTWYEVEPFVPFLEAQIGPPDVHLEAEDKAIILSISPPGTKDSIMWAMDRSSFRYSVVIWKNSSSLEERTETVYPEDKIYKLSPEITYCLKVKAELRLQSRVGCYSPVYCINTTERHKVPSPENIQINADNQIYVLKWDYPYENATFQAQWLRAFFKKIPGNHSDKWKQIPNCENVTSTHCVFPREVSSRGIYYVRVRASNGNGTSFWSEEKEFNTEMKTIIFPPVISVKSVTDDSLHVSVGASEESENMSVNQLYPLIYEVIFWENTSNAERKVLEKRTNFIFPDLKPLTVYCVKARALIENDRRNKGSSVSDTVCEKTKPGNTSK
- soluble on expression in E. coli: not soluble
